Reference: the supplement of paper PMC10567573

B1: C1orf137 (parent)
chain: RQHHHQSSFPGSLPQETNLTLKVC

Variants of: B1
Test: protein stability index of a GFP-peptide fusion (GPS, HEK-293T) (PSI 1-6); higher = more stable
Details: c terminus: a fixed tail appended
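Also: lentivirally expressed fusions sorted by FACS into six bins by GFP to DsRed ratio, PSI derived from sequencing read proportions per bin multiplied by bin number.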

**Q.** For RQHHHQSRFPGSLPQETNLTLKVC [S8R], which protein stability index is on record?
**A.** 2.57

**Q.** With RQHHHQSYFPGSLPQETNLTLKVC [S8Y] as the variant, how does the protein stability index read?
**A.** 2.02

**Q.** With RQHHHQSQFPGSLPQETNLTLKVC [S8Q] as the variant, how does the protein stability index read?
**A.** 2.9

**Q.** For RQHHHQSNFPGSLPQETNLTLKVC [S8N], which protein stability index is on record?
**A.** 3.08

**Q.** Which protein stability index does the source give for RQHHHQSMFPGSLPQETNLTLKVC [S8M] here?
**A.** 2.68

**Q.** For RQHHHQSPFPGSLPQETNLTLKVC [S8P], which protein stability index is on record?
**A.** 2.71

**Q.** Which protein stability index does the source give for RQHHHQSTFPGSLPQETNLTLKVC [S8T] here?
**A.** 2.71

**Q.** With RQHHHQSWFPGSLPQETNLTLKVC [S8W] as the variant, how does the protein stability index read?
**A.** 2

**Q.** Which protein stability index does the source give for RQHHHQSVFPGSLPQETNLTLKVC [S8V] here?
**A.** 2.78

**Q.** For RQHHHQSSFPGSLCQETNLTLKVC [P14C], which protein stability index is on record?
**A.** 2.85

**Q.** For RQHHHQSSFPGSLQQETNLTLKVC [P14Q], which protein stability index is on record?
**A.** 3.44

**Q.** For RQHHHQSSFPGSLLQETNLTLKVC [P14L], which protein stability index is on record?
**A.** 2.29

**Q.** For RQHHHQSSFPGSLDQETNLTLKVC [P14D], which protein stability index is on record?
**A.** 3.55

**Q.** With RQHHHQSSFPGSLHQETNLTLKVC [P14H] as the variant, how does the protein stability index read?
**A.** 2.37

**Q.** Which protein stability index does the source give for RQHHHQSSFPGSLSQETNLTLKVC [P14S] here?
**A.** 2.72

**Q.** Which protein stability index does the source give for RQHHHQSSFPGSLRQETNLTLKVC [P14R] here?
**A.** 2.4

**Q.** With RQHHHQSSFPGSLKQETNLTLKVC [P14K] as the variant, how does the protein stability index read?
**A.** 3.13

**Q.** Which protein stability index does the source give for RQHHHQSSFPGSLWQETNLTLKVC [P14W] here?
**A.** 1.62

**Q.** For RQHHHQSSFPGSLVQETNLTLKVC [P14V], which protein stability index is on record?
**A.** 2.55

**Q.** Which protein stability index does the source give for RQHHHQSSFPGSLMQETNLTLKVC [P14M] here?
**A.** 2.02

**Q.** For RQHHHQSSFPGSLEQETNLTLKVC [P14E], which protein stability index is on record?
**A.** 3.17

**Q.** With RQHHHQSSFPGSLYQETNLTLKVC [P14Y] as the variant, how does the protein stability index read?
**A.** 2.11

**Q.** For RQHHHQSSFPGSLTQETNLTLKVC [P14T], which protein stability index is on record?
**A.** 2.71

**Q.** With RQHHHQSSFPGSLGQETNLTLKVC [P14G] as the variant, how does the protein stability index read?
**A.** 3.18

**Q.** Which protein stability index does the source give for RQHHHQSSFPGSLAQETNLTLKVC [P14A] here?
**A.** 3.15

**Q.** With RQHHHQSSFPGSLNQETNLTLKVC [P14N] as the variant, how does the protein stability index read?
**A.** 2.54

**Q.** Which protein stability index does the source give for RQHHHQSSFPGSLFQETNLTLKVC [P14F] here?
**A.** 2

**Q.** For RQHHHQSSFPGSLIQETNLTLKVC [P14I], which protein stability index is on record?
**A.** 2.24

**Q.** For RQHHHQSSWPGSLPQETNLTLKVC [F9W], which protein stability index is on record?
**A.** 3.27

**Q.** For RQHHHQSSYPGSLPQETNLTLKVC [F9Y], which protein stability index is on record?
**A.** 3.41

**Q.** With RQHHHQSSNPGSLPQETNLTLKVC [F9N] as the variant, how does the protein stability index read?
**A.** 3.88

**Q.** Which protein stability index does the source give for RQHHHQSSSPGSLPQETNLTLKVC [F9S] here?
**A.** 3.16

**Q.** With RQHHHQSSVPGSLPQETNLTLKVC [F9V] as the variant, how does the protein stability index read?
**A.** 3.46

**Q.** For RQHHHQSSPPGSLPQETNLTLKVC [F9P], which protein stability index is on record?
**A.** 3.38

**Q.** For RQHHHQSSRPGSLPQETNLTLKVC [F9R], which protein stability index is on record?
**A.** 3.7

**Q.** With RQHHHQSSKPGSLPQETNLTLKVC [F9K] as the variant, how does the protein stability index read?
**A.** 4.33

**Q.** With RQHHHQSSTPGSLPQETNLTLKVC [F9T] as the variant, how does the protein stability index read?
**A.** 3.42

**Q.** For RQHHHQSSHPGSLPQETNLTLKVC [F9H], which protein stability index is on record?
**A.** 3.64

**Q.** For RQHHHQSSAPGSLPQETNLTLKVC [F9A], which protein stability index is on record?
**A.** 3.97

**Q.** Which protein stability index does the source give for RQHHHQSSIPGSLPQETNLTLKVC [F9I] here?
**A.** 3.3

**Q.** Which protein stability index does the source give for RQHHHQSSMPGSLPQETNLTLKVC [F9M] here?
**A.** 3.18

**Q.** Which protein stability index does the source give for RQHHHQSSDPGSLPQETNLTLKVC [F9D] here?
**A.** 4.08

**Q.** With RQHHHQSSCPGSLPQETNLTLKVC [F9C] as the variant, how does the protein stability index read?
**A.** 3.16

**Q.** With RQHHHQSSLPGSLPQETNLTLKVC [F9L] as the variant, how does the protein stability index read?
**A.** 3.53

**Q.** For RQHHHQSSGPGSLPQETNLTLKVC [F9G], which protein stability index is on record?
**A.** 4.03

**Q.** With RQHHHQSSFPGSLPQETILTLKVC [N18I] as the variant, how does the protein stability index read?
**A.** 2

**Q.** Which protein stability index does the source give for RQHHHQSSFPGSLPQETFLTLKVC [N18F] here?
**A.** 2.55

**Q.** Which protein stability index does the source give for RQHHHQSSFPGSLPQETKLTLKVC [N18K] here?
**A.** 2.89

**Q.** Which protein stability index does the source give for RQHHHQSSFPGSLPQETMLTLKVC [N18M] here?
**A.** 2.51

**Q.** For RQHHHQSSFPGSLPQETELTLKVC [N18E], which protein stability index is on record?
**A.** 2.77

**Q.** For RQHHHQSSFPGSLPQETHLTLKVC [N18H], which protein stability index is on record?
**A.** 1.84

**Q.** Which protein stability index does the source give for RQHHHQSSFPGSLPQETALTLKVC [N18A] here?
**A.** 2.76

**Q.** Which protein stability index does the source give for RQHHHQSSFPGSLPQETCLTLKVC [N18C] here?
**A.** 1.96

**Q.** For RQHHHQSSFPGSLPQETGLTLKVC [N18G], which protein stability index is on record?
**A.** 3.65

**Q.** With RQHHHQSSFPGSLPQETLLTLKVC [N18L] as the variant, how does the protein stability index read?
**A.** 2.2

**Q.** Which protein stability index does the source give for RQHHHQSSFPGSLPQETDLTLKVC [N18D] here?
**A.** 3.83

**Q.** With RQHHHQSSFPGCLPQETNLTLKVC [S12C] as the variant, how does the protein stability index read?
**A.** 2.37

**Q.** With RQHHHQSSFPGVLPQETNLTLKVC [S12V] as the variant, how does the protein stability index read?
**A.** 3.38

**Q.** Which protein stability index does the source give for RQHHHQSSFPGRLPQETNLTLKVC [S12R] here?
**A.** 3.17

**Q.** Which protein stability index does the source give for RQHHHQSSFPGELPQETNLTLKVC [S12E] here?
**A.** 3.46

**Q.** For RQHHHQSSFPGFLPQETNLTLKVC [S12F], which protein stability index is on record?
**A.** 2.41

**Q.** With RQHHHQSSFPGMLPQETNLTLKVC [S12M] as the variant, how does the protein stability index read?
**A.** 2.73

**Q.** For RQHHHQSSFPGYLPQETNLTLKVC [S12Y], which protein stability index is on record?
**A.** 2.27

**Q.** For RQHHHQSSFPGDLPQETNLTLKVC [S12D], which protein stability index is on record?
**A.** 3.19

**Q.** With RQHHHQSSFPGGLPQETNLTLKVC [S12G] as the variant, how does the protein stability index read?
**A.** 2.96

**Q.** With RQHHHQSSFPGNLPQETNLTLKVC [S12N] as the variant, how does the protein stability index read?
**A.** 2.99

**Q.** For RQHHHQSSFPGWLPQETNLTLKVC [S12W], which protein stability index is on record?
**A.** 2.44

**Q.** Which protein stability index does the source give for RQHHHQSSFPGPLPQETNLTLKVC [S12P] here?
**A.** 2.82

**Q.** For RQHHHQSSFPGHLPQETNLTLKVC [S12H], which protein stability index is on record?
**A.** 2.38

**Q.** With RQHHHQSSFPGQLPQETNLTLKVC [S12Q] as the variant, how does the protein stability index read?
**A.** 2.55

**Q.** With RQHHHQSSFPGTLPQETNLTLKVC [S12T] as the variant, how does the protein stability index read?
**A.** 2.99

**Q.** With RQHHHQSSFPGALPQETNLTLKVC [S12A] as the variant, how does the protein stability index read?
**A.** 3.19

**Q.** For RQHHHQSSFPGKLPQETNLTLKVC [S12K], which protein stability index is on record?
**A.** 2.98

**Q.** With RQHHHQSSFPGLLPQETNLTLKVC [S12L] as the variant, how does the protein stability index read?
**A.** 2.66

**Q.** With RQHHHQSSFPGILPQETNLTLKVC [S12I] as the variant, how does the protein stability index read?
**A.** 2.41

**Q.** Which protein stability index does the source give for RQHHHQSSFPGSLPPETNLTLKVC [Q15P] here?
**A.** 3.05

**Q.** Which protein stability index does the source give for RQHHHQSSFPGSLPEETNLTLKVC [Q15E] here?
**A.** 3.65

**Q.** With RQHHHQSSFPGSLPHETNLTLKVC [Q15H] as the variant, how does the protein stability index read?
**A.** 2.51

**Q.** For RQHHHQSSFPGSLPKETNLTLKVC [Q15K], which protein stability index is on record?
**A.** 2.46

**Q.** With RQHHHQSSFPGSLPCETNLTLKVC [Q15C] as the variant, how does the protein stability index read?
**A.** 2.56

**Q.** Which protein stability index does the source give for RQHHHQSSFPGSLPRETNLTLKVC [Q15R] here?
**A.** 2.54

**Q.** For RQHHHQSSFPGSLPGETNLTLKVC [Q15G], which protein stability index is on record?
**A.** 2.19

**Q.** With RQHHHQSSFPGSLPAETNLTLKVC [Q15A] as the variant, how does the protein stability index read?
**A.** 2.03

**Q.** Which protein stability index does the source give for RQHHHQSSFPGSLPDETNLTLKVC [Q15D] here?
**A.** 3.26

**Q.** With RQHHHQSSFPGSLPSETNLTLKVC [Q15S] as the variant, how does the protein stability index read?
**A.** 3.36

**Q.** With RQHHHQSSFPGSLPFETNLTLKVC [Q15F] as the variant, how does the protein stability index read?
**A.** 1.71

**Q.** With RQHHHQSSFPGSLPTETNLTLKVC [Q15T] as the variant, how does the protein stability index read?
**A.** 3.34

**Q.** Which protein stability index does the source give for RQHHHQSSFPGSLPVETNLTLKVC [Q15V] here?
**A.** 2.6

**Q.** Which protein stability index does the source give for RQHHHQSSFPGSLPIETNLTLKVC [Q15I] here?
**A.** 2.53

**Q.** Which protein stability index does the source give for RQHHHQSSFPGSLPLETNLTLKVC [Q15L] here?
**A.** 2.19

**Q.** Which protein stability index does the source give for RQHHHQSSFPGSLPMETNLTLKVC [Q15M] here?
**A.** 2.29

**Q.** Which protein stability index does the source give for RQHHHQSSFPGSLPYETNLTLKVC [Q15Y] here?
**A.** 2.28

**Q.** With RQHHHQSSFPGSLPNETNLTLKVC [Q15N] as the variant, how does the protein stability index read?
**A.** 2.47

**Q.** For RQHHHQSSFPGSLPWETNLTLKVC [Q15W], which protein stability index is on record?
**A.** 2.29
